Our source for the signal intensity of myrNAP22 left in the supernatant (lane 2) relative to input (lane 3) values is patent WO2015137441A1.

For this experiment, the target named is myrNAP22 (myristoylated NAP22), rat (rat) (UniProt Q05175). The experiment can be described thus: immunoprecipitation with control beads, supernatant on SDS-PAGE, Coomassie staining.
Chain of UniProt Q05175 (Q05175 2-220 limits assumed): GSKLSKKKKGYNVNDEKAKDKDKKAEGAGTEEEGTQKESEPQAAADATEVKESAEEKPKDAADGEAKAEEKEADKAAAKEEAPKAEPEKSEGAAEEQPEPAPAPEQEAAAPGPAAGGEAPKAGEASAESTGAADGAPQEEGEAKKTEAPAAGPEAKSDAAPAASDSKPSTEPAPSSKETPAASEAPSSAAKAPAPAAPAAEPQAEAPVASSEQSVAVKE

Substance “control clone (an antibody clone randomly cloned from the library) (scFv)” yielded a signal intensity of myrNAP22 left in the supernatant (lane 2) relative to input (lane 3) of 90%.
